Experimental findings from doi:10.1101/382812 are described below.

This test has as its target Hcf106 G6CV14C (Pisum sativum). Kind of test: cross-linking.

Some results are limits rather than exact numbers.

Hcf106 G6CV14C (natural protein) gave a stoichiometry N below 8.

Broadly, the stoichiometry N is a count of units in the complex or per binding partner.
